Patent publication US20210275669A1

Tests used:
[1] = target: PD-1 on PATHHUNTER PD-1 Jurkat cells, Q15116; assay: cell-based or functional assay
[2] = target: CTLA-4 on PATHHUNTER CTLA4 Jurkat cells, P16410; assay: cell-based or functional assay
CTLA-4 on PATHHUNTER CTLA4 Jurkat cells, P16410, sequence (P16410 36-223 limits assumed): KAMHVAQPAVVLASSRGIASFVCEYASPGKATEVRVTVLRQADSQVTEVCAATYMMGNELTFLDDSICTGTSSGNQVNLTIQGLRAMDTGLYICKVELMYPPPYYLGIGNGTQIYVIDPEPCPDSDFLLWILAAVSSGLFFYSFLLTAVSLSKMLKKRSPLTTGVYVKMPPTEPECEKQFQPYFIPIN

PD-1 on PATHHUNTER PD-1 Jurkat cells, Q15116, sequence (Q15116 25-288 limits assumed): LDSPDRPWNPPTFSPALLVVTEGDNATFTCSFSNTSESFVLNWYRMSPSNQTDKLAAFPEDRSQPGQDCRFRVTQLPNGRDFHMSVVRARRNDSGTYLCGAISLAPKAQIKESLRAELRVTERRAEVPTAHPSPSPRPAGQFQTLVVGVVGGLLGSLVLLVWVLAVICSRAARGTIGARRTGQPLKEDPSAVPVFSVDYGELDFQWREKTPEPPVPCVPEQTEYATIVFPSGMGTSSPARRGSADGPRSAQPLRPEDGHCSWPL

Binder CRRTSTGQISTLRVNITAPLSQ (modifications not checked) [peptide LD01] has a % inhibition (PATHHUNTER PD-1 assay; 100 µM; Study 1) [1] of 50.5%, a % inhibition (PATHHUNTER PD-1 assay; 100 µM; Study 2) [1] of 79% and a % inhibition (PATHHUNTER PD-1 assay; 100 µM; Study 4) [1] of 65%. It also gave a % inhibition (PATHHUNTER PD-1 assay; 100 µM; Study 5) [1] of 24%, a % inhibition (PATHHUNTER PD-1 assay; 100 µM; Study 6) [1] of 83% and a % inhibition (PATHHUNTER CTLA4 assay; 100 µM; Study 2) [2] of 51%. For the same binder, the % inhibition (PATHHUNTER CTLA4 assay; 100 µM; Study 4) [2] was 16% and the % inhibition (PATHHUNTER CTLA4 assay; 100 µM; Study 6) [2] was 46%.
